Results: the supplement of paper PMC11865577

These sequences were tested on TO-N3 (biotin conjugate) (assay: pull-down binding Z-score (relative to library population); higher = stronger binding). Conditions: RNA library: Library-2.
How it was run: (§1)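 Streptavidin beads bearing 100 pmol of a biotin-conjugated small molecule were incubated for 60 min at 25 °C with 1 μg of heat-folded, Cy5- or Cy3-end-labelled RNA library in phosphate/NaCl/KCl buffer. Hot SDS eluted the RNA that stayed bound after three washes, and this RNA was hybridised for 20 h at 55.5 °C to a DNA barcode microarray. Binding was expressed as a Z-score against the library mean and standard deviation, after subtraction of a beads-only signal and trimmed averaging of barcoded replicate probes.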

Row | Sequence | pull-down binding Z-score
1 | CAUUGUAAUAGUUCAUAUGGGCACUG [hsa-mir-3660] | 0.0211
2 | CAUUUCAGCGUAUAUAUGUAUAUGUGGCUGUG [hsa-mir-19b-2] | 1.11
3 | CAUUUCCUUCAUGAUUAGGAAUACUACUUUGAAAUG [hsa-mir-4712] | -0.856
4 | CAUUUGUGGCAUGGACCAUUUGUG [hsa-mir-4504] | -0.959
5 | CCAAAGAAACUUUUUUGG [hsa-mir-6079] | -0.761
6 | CCAAAUCAGAAAAGGAUUUGG [hsa-mir-4520-1] | -0.698
7 | CCAAAUCCUUUUCUGAUUUGG [hsa-mir-4520-2] | -1.03
8 | CCAAAUUUCAUGCG [hsa-mir-4454] | 0.0342
9 | CCAAGCUUAGUUUGG [hsa-mir-1302-11_1302-10_1302-3_1302-2_1302-9] | 0.572
10 | CCAAGGCUCUGGGGUCUCACCCUUGG [hsa-mir-6842] | 0.386
11 | CCAAGGUUGUGCUUUUAGGAAAUGUUGGCUGUCCUGCGG [hsa-mir-5739] | -0.157
12 | CCAAGUCUGACCACCUGAGGAAUGCCUGG [hsa-mir-1269a] | -0.288
13 | CCAAUGGUAUCCAGUGAUUCGUUGA [hsa-mir-4709] | -0.0552
14 | CCACAUAGGAGGGACAGCGGCCUUUCCAACAGG [hsa-mir-9500] | 0.58
15 | CCACCCACCAGGGAGCUUUCCAUGGGCUGUGGG [hsa-mir-4725] | 0.567
16 | CCACGGGCUGGGCACAGUGG [hsa-mir-3159] | 1.18
17 | CCACUACCGGUGA [hsa-mir-4658] | -0.127
18 | CCACUGGGAAUGCUCCCUGAGGACGUUAUAUGAGUG [hsa-mir-4319] | 0.802
19 | CCAGGCCACAUAAUGAGCCAAA [hsa-mir-6771] | 0.899
20 | CCAGGCCCCACGGAGAACCAGGGCACCUGG [hsa-mir-8058] | -0.188
21 | CCAGGUUCCAUGUGAUGCUGAA [hsa-mir-6806] | 0.316
22 | CCAGUGCUGGGCUCAGACCCUGG [hsa-mir-150] | 0.0645
23 | CCAGUGGUUUUCCUUGACUGUG [hsa-mir-298] | -0.416
24 | CCAUAAGCUGUCUAAAACUUCG [hsa-mir-4513] | -0.327
25 | CCAUACAAUAUUUGG [hsa-mir-1302-1] | -0.898

Row | Sequence | pull-down binding Z-score
26 | CCAUCAAGCCCCACCAGAAGGUGGAGGCCCAGGUGAG [hsa-mir-4721] | 0.16
27 | CCAUGCAACAUUUGG [hsa-mir-1302-4] | -0.359
28 | CCAUGCUGUUUAAGCCUAGCAUAG [hsa-mir-4423] | 0.208
29 | CCAUGGGGGCCUUGCUGUGU [hsa-mir-6808] | 1.28
30 | CCAUGGUGUGCUCUGAUCCCCCUGUGG [hsa-mir-6848] | 0.592
31 | CCAUGUAAUCUUUGG [hsa-mir-1302-5] | 0.454
32 | CCAUGUGAGUGAAGCCUGAUCAUCAUGUG [hsa-mir-8070] | -0.232
33 | CCAUGUGGUUGCGAGGUAUGAGUAAAACAUGG [hsa-mir-218-1] | -0.567
34 | CCAUUAUUGCUACUGUUCAGCAGGUGCUGCUGGUGGUGAUGG [hsa-mir-1260b] | 0.244
35 | CCAUUAUUUUUAAUAAUUAUAAUAAUGG [hsa-mir-548s] | -0.233
36 | CCAUUUACUUGAACCUUUAGGAGUGA [hsa-mir-489] | 0.319
37 | CCCAAACUUGGAGCACUUGACCUUUGGC [hsa-mir-4687] | 0.815
38 | CCCAAGCAGGCUUUGUGUGAGCAGUGAGGCUAUUUAUUCACUUGGGUGCGAGCUCACACGAAGCCUGCUUGGG [hsa-mir-6839] | 0.551
39 | CCCACCAUGUACCAGUGGG [hsa-mir-4422] | -0.813
40 | CCCACCCUGAGUUUUGGUGGG [hsa-mir-6508] | -0.245
41 | CCCACCUCCAGCAUUGGG [hsa-mir-1267] | -0.663
42 | CCCACGGCCCUUGUCAGUGUG [hsa-mir-3190] | 0.809
43 | CCCACGUCGCAUGCGCCCCGGGAAAGCGUGGG [hsa-mir-3180-1_3180-3_3180-2] | 0.682
44 | CCCACUCCAAAGUUCACAGAAUGGGUGG [hsa-mir-541] | 1.8
45 | CCCACUUCCUGGA [hsa-mir-4260] | -0.494
46 | CCCAGAGAAAGCCUGAACGUUGGG [hsa-mir-585] | 0.119
47 | CCCAGCCUUCCAGAGUUGGUGCCAGG [hsa-mir-4476] | 1.14
48 | CCCAGCCUUGGCGUUCAGGUGCUGAG [hsa-mir-3150b] | -0.022
49 | CCCAGCUUUGUGACUGUAAGUGUUGGA [hsa-mir-184] | 0.723
50 | CCCAUAAGGGUCGAAUGGG [hsa-mir-4713] | 0.272

Row | Sequence | pull-down binding Z-score
51 | CCCAUAUAAUAUUAGGGG [hsa-mir-4483] | -0.783
52 | CCCAUAUGAACAUACAAUGCUAUGGA [hsa-mir-1-2] | -0.569
53 | CCCAUAUGGACCUGCUAAGCUAUGGA [hsa-mir-1-1] | 0.289
54 | CCCAUAUGGAUUACUUUGCUAUGGA [hsa-mir-206] | 0.036
55 | CCCAUUUAAAAUAUGGAA [hsa-mir-548ai] | 0.322
56 | CCCCCAAUUAAAGUAGAUUGGGGG [hsa-mir-3153] | -0.725
57 | CCCCGCGCGCGGACAGACACACGGACAAGUCCCGCCAGGGG [hsa-mir-4492] | 1.59
58 | CCCGAGCUGGGCAGCAUGAAGGGCCUCGGG [hsa-mir-486-2] | 1.64
59 | CCCGAGGCCCUUCAUGCUGCCCAGCUCGGG [hsa-mir-486-1] | 0.727
60 | CCCGGAUACCUCAGAAAUUCGG [hsa-mir-760] | -0.0213
61 | CCCGGCCGGCAGCCCCCGGCCUUAAAGCGCGGG [hsa-mir-4741] | 0.228
62 | CCCGUAGGACACCGAGGCUUAUGAAUAGGA [hsa-mir-6081] | 0.345
63 | CCCUAGGACUUACUUGUGCAGGG [hsa-mir-4253] | -0.303
64 | CCCUCAUAUGGCAGUUGGCGAGGGCCCAGUGAG [hsa-mir-6769a] | 1.33
65 | CCCUGCACUCAGUUUGCACAGGG [hsa-mir-4511] | -0.122
66 | CCCUGCCCAGUGCAGGAG [hsa-mir-6069] | -0.817
67 | CCCUGGGGAGCUGCUGCAGGCAGCAGGUGGGCGGGACGCCAGCAGGCUGUCUAGCUGUUCCCAUGAUGG [hsa-mir-6843] | 1.81
68 | CCCUGGUCAGACUCUCCGGGG [hsa-mir-4675] | -0.368
69 | CCCUUGUCUUCCCAGAG [hsa-mir-4739] | -0.358
70 | CCGACUCGGGCUCUGGAGCAGUC [hsa-mir-152] | 1.09
71 | CCGACUCUGAGUAUGAUAGAAGUC [hsa-mir-148a] | 1.48
72 | CCGAGUGAUCUCGGU [hsa-mir-8071-1_8071-2] | -0.685
73 | CCGCCCUCGUGUCUGUGGCGGUGG [hsa-mir-663a] | 0.334
74 | CCGCCUUUGUGCUGUCCUUGGAGGGAGG [hsa-mir-1910] | 0.226

Each sequence was assayed on G-clamp-N3 (biotin conjugate) in the same assay as above. Conditions: RNA library: Library-1 (pre-miRNA loops + repeats).
How it was run: as §1

Row | Sequence | pull-down binding Z-score
75 | CAUUGUAAUAGUUCAUAUGGGCACUG [hsa-mir-3660] | 2.34
76 | CAUUUCAGCGUAUAUAUGUAUAUGUGGCUGUG [hsa-mir-19b-2] | 2.71
77 | CAUUUCCUUCAUGAUUAGGAAUACUACUUUGAAAUG [hsa-mir-4712] | -0.338
78 | CAUUUGUGGCAUGGACCAUUUGUG [hsa-mir-4504] | -0.183
79 | CCAAAGAAACUUUUUUGG [hsa-mir-6079] | -0.295
80 | CCAAAUCAGAAAAGGAUUUGG [hsa-mir-4520-1] | 4.83
81 | CCAAAUCCUUUUCUGAUUUGG [hsa-mir-4520-2] | -0.824
82 | CCAAAUUUCAUGCG [hsa-mir-4454] | -1.72
83 | CCAAGCUUAGUUUGG [hsa-mir-1302-11_1302-10_1302-3_1302-2_1302-9] | 0.00542
84 | CCAAGGCUCUGGGGUCUCACCCUUGG [hsa-mir-6842] | 0.754
85 | CCAAGGUUGUGCUUUUAGGAAAUGUUGGCUGUCCUGCGG [hsa-mir-5739] | 0.485
86 | CCAAGUCUGACCACCUGAGGAAUGCCUGG [hsa-mir-1269a] | -0.858
87 | CCAAUGGUAUCCAGUGAUUCGUUGA [hsa-mir-4709] | -0.854
88 | CCACAUAGGAGGGACAGCGGCCUUUCCAACAGG [hsa-mir-9500] | -0.994
89 | CCACCCACCAGGGAGCUUUCCAUGGGCUGUGGG [hsa-mir-4725] | 1.47
90 | CCACGGGCUGGGCACAGUGG [hsa-mir-3159] | 1.07
91 | CCACUACCGGUGA [hsa-mir-4658] | -0.573
92 | CCACUGGGAAUGCUCCCUGAGGACGUUAUAUGAGUG [hsa-mir-4319] | 0.953
